Source: article PMC4159615 (Developmental cell, 2014)
Residue numbers refer to the chain shown, from its start. In names and notes the source's numbering stands. Values belong to the binder of their own block, whether it stands above or below them.

Experiments:
[1] = target: T1, Chs5(1-299)-T92Y/Bch1-N692I exomer complex (S. cerevisiae (yeast), UniProt Q12114 1-299; Q05029 1-724, T92Y | N692I); test: co-sedimentation
T1 sequence 1: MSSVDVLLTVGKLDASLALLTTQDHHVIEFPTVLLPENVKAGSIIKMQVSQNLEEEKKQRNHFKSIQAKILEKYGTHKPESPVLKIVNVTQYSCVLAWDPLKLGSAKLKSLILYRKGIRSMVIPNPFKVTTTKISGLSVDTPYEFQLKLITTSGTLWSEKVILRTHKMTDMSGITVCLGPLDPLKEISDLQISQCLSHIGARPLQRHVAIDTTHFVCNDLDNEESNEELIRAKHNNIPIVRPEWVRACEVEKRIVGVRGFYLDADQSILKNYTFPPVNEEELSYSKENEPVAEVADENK
T1 sequence 2: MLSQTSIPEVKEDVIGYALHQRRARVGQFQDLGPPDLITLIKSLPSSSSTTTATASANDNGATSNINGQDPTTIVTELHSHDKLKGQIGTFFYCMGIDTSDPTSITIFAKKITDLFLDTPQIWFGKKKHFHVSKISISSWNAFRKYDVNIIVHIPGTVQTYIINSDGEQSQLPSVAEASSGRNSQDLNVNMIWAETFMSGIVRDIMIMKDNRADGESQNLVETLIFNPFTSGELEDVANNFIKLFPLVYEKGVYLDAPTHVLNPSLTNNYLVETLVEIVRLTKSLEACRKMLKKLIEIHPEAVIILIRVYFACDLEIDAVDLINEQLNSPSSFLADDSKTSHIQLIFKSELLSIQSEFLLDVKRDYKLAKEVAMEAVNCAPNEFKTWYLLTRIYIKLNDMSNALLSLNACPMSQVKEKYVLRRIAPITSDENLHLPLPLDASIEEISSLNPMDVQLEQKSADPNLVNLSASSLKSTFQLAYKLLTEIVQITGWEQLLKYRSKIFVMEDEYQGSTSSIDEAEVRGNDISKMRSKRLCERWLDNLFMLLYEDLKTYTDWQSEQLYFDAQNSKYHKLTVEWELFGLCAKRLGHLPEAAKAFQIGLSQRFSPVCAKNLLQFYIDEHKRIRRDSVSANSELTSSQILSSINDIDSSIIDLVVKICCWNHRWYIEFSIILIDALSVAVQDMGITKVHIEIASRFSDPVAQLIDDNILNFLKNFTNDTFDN

[2] = target: T2, Chs5(1-299)/Bch1-N692I exomer complex (S. cerevisiae (yeast), UniProt Q12114 1-299; Q05029 1-724, N692I); test: co-sedimentation
T2 sequence 1: T1 sequence 1 with Y92T
T2 sequence 2: T1 sequence 2

[3] = target: T3, Chs5(1-299)-T92Y/Bch1 exomer complex (S. cerevisiae (yeast), UniProt Q12114 1-299; Q05029 1-724, T92Y); test: co-sedimentation
T3 sequence 1: T1 sequence 1
T3 sequence 2: T1 sequence 2 with I692N

[4] = target: T4, Chs5(1-299)/Bch1 exomer complex (S. cerevisiae (yeast), UniProt Q12114 1-299; Q05029 1-724); test: co-sedimentation
T4 sequence 1: T1 sequence 1 with Y92T
T4 sequence 2: T1 sequence 2 with I692N

[5] = target: T5, Chs5(1-299)/Chs6 exomer complex (S. cerevisiae (yeast), UniProt Q12114 1-299; P40955 1-746); test: co-sedimentation
T5 sequence (looked up) 1: T1 sequence 1 with Y92T
T5 sequence (looked up) 2: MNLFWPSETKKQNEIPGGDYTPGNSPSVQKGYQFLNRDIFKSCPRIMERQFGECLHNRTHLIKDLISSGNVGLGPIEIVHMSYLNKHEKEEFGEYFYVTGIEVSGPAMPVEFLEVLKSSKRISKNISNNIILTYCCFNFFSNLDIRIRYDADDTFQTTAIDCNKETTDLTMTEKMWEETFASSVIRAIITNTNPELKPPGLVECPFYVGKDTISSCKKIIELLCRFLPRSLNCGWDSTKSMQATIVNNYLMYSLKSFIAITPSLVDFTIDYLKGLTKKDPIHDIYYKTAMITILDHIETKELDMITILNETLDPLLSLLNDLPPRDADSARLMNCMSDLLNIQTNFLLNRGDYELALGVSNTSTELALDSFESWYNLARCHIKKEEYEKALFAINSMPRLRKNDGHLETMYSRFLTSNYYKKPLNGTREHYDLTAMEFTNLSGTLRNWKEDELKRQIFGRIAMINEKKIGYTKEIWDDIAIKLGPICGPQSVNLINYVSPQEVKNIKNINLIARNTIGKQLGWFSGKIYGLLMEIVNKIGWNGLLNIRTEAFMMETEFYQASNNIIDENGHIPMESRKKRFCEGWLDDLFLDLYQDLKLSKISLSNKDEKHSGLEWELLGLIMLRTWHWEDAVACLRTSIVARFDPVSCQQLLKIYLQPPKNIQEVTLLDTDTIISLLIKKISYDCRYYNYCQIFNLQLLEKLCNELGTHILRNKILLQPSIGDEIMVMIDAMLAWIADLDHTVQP

[6] = target: T4, Chs5(1-299)/Bch1 exomer complex; test: crystal structure
Bch1 = target: T6, Bch1 (S. cerevisiae (yeast), UniProt Q05029 1-724); test: crystal structure
T6 sequence: T1 sequence 2 with I692N

crystal structure = target: the molecule itself; test: crystal structure

B1: myristoylated Arf1 (wild type), GTP-bound, anchored on liposomes (natural protein, yeast, UniProt P11076 1-181, looked up)
chain: MGLFASKLFSNLFGNKEMRILMVGLDGAGKTTVLYKLKLGEVITTIPTIGFNVETVQYKNISFTVWDVGGQDRIRSLWRHYYRNTEGVIFVVDSNDRSRIGEAREVMQRMLNEDELRNAAWLVFANKQDLPEAMSAAEITEKLGLHSIRNRPWFIQATCATSGEGLYEGLEWLSNSLKNST
modifications: myristoylated
- binding result [1]: binds
- binding result [2]: binds
- binding result [3]: binds
- binding result [4]: binds
- binding result [5]: binds

B2: myristoylated Arf1-S98Y (natural protein, yeast, UniProt P11076 1-181, looked up)
chain: B1 chain with S98Y
modifications: myristoylated
- binding result [4]: binds

More lines, main results first:

- stoichiometry N [6]: 2
- binding result (Bch1): binds
B3: ΔN17-Arf1-Q71L bound to GMPPNP (domain or fragment, S. cerevisiae (yeast), UniProt P11076 18-181, looked up)
chain: MRILMVGLDGAGKTTVLYKLKLGEVITTIPTIGFNVETVQYKNISFTVWDVGGLDRIRSLWRHYYRNTEGVIFVVDSNDRSRIGEAREVMQRMLNEDELRNAAWLVFANKQDLPEAMSAAEITEKLGLHSIRNRPWFIQATCATSGEGLYEGLEWLSNSLKNST

- binding result (Bch1): binds
B4: Chs5 (residues 1-299) (domain or fragment, S. cerevisiae (yeast), UniProt Q12114 1-299, looked up)
chain: T1 sequence 1 with Y92T
- binding result (crystal structure): binds
